T1: cyno IL-6 (cynomolgus monkey, UniProt P79341 28-212, limits assumed)
T1 sequence (looked up): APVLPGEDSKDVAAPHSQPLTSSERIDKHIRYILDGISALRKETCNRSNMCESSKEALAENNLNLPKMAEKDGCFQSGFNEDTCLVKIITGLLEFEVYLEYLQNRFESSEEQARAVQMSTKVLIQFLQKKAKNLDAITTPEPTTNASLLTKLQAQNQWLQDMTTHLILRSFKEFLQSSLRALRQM

B1: F027201040 (VHH)
VHH: EVQLVESGGGVVQPGGSLRLSCAASGFTLAYYAIGWFRQAPGKEREGVSCISGSVGTTYYADSVKGRFTISRDNAKNTVYLQMNSLRPEDTALYYCVRSSWFDCGVQGRDLGNEYDYRGQGTLVTVSS
notes: also called IL6006B12 (L11V, S52aG, S60A, K83R, V89L)
B2: F027200927 (bispecific antibody)
chain: DVQLVESGGGVVQPGGSLRLSCTASGFTFSTADMGWFRQAPGKGREFVARISGIDGTTYYDEPVKGRFTISRDNSKNTVYLQMNSLRPEDTALYYCRSPRYADQWSAYDYWGQGTLVTVSSGGGGSGGGSEVQLVESGGGVVQPGGSLRLSCAASGRTFSSYVMGWFRQAPGKEREFVSTINWAGSRGYYADSVKGRFTISRDNAKNTVYLQMNSLRPEDTALYYCAASAGGFLVPRVGQGYDYWGQGTLVTVSSGGGGSGGGSEVQLVESGGGVVQPGGSLRLSCAASGFTFRSFGMSWVRQAPGKGPEWVSSISGSGSDTLYADSVKGRFTISRDNSKNTLYLQMNSLRPEDTALYYCTIGGSLSRSSQGTLVTVSSGGGGSGGGSEVQLVESGGGVVQPGGSLRLSCAASGFSLDYYGVGWFRQAPGKEREGVSCISSSEGDTYYADSVKGRFTISRDNAKNTVYLQMNSLRPEDTALYYCATDLSDYGVCSRWPSPYDYWGQGTLVKVSSA
B3: F027201060 (bispecific antibody)
chain: EVQLVESGGGVVQPGGSLRLSCAASGFTLAYYAIGWFRQAPGKEREGVSCISGSVGTTYYADSVKGRFTISRDNAKNTVYLQMNSLRPEDTALYYCVRSSWFDCGVQGRDLGNEYDYRGQGTLVTVSSGGGGSGGGSEVQLVESGGGVVQPGGSLRLSCAASGFTFRSFGMSWVRQAPGKGPEWVSSISGSGSDTLYADSVKGRFTISRDNSKNTLYLQMNSLRPEDTALYYCTIGGSLSRSSQGTLVTVSSGGGGSGGGSEVQLVESGGGVVQPGGSLRLSCAASGFSLDYYGVGWFRQAPGKEREGVSCISSSEGDTYYADSVKGRFTISRDNAKNTVYLQMNSLRPEDTALYYCATDLSDYGVCSRWPSPYDYWGQGTLVKVSSGGGGSGGGSEVQLVESGGGVVQPGGSLRLSCTASGFTFSTADMGWFRQAPGKGREFVARISGIDGTTYYDEPVKGRFTISRDNSKNTVYLQMNSLRPEDTALYYCRSPRYADQWSAYDYWGQGTLVKVSS
B4: F027201061 (bispecific antibody)
chain: EVQLVESGGGVVQPGGSLRLSCTASGFTFSTADMGWFRQAPGKGREFVARISGIDGTTYYDEPVKGRFTISRDNSKNTVYLQMNSLRPEDTALYYCRSPRYADQWSAYDYWGQGTLVKVSSGGGGSGGGSEVQLVESGGGVVQPGGSLRLSCAASGFTLAYYAIGWFRQAPGKEREGVSCISGSVGTTYYADSVKGRFTISRDNAKNTVYLQMNSLRPEDTALYYCVRSSWFDCGVQGRDLGNEYDYRGQGTLVTVSSGGGGSGGGSEVQLVESGGGVVQPGGSLRLSCAASGFTFRSFGMSWVRQAPGKGPEWVSSISGSGSDTLYADSVKGRFTISRDNSKNTLYLQMNSLRPEDTALYYCTIGGSLSRSSQGTLVTVSSGGGGSGGGSEVQLVESGGGVVQPGGSLRLSCAASGFSLDYYGVGWFRQAPGKEREGVSCISSSEGDTYYADSVKGRFTISRDNAKNTVYLQMNSLRPEDTALYYCATDLSDYGVCSRWPSPYDYWGQGTLVKVSS
B5: F027200925 (bispecific antibody)
chain: DVQLVESGGGVVQPGGSLRLSCTASGFTFSTADMGWFRQAPGKGREFVARISGIDGTTYYDEPVKGRFTISRDNSKNTVYLQMNSLRPEDTALYYCRSPRYADQWSAYDYWGQGTLVTVSSGGGGSGGGSEVQLVESGGGVVQPGGSLRLSCAASGIIFSINAMGWYRQAPGKQRELVADIFPFGSTEYADSVKGRFTISRDNAKNTVYLQMNSLRPEDTALYYCHSYDPRGDDYWGQGTLVTVSSGGGGSGGGSEVQLVESGGGVVQPGGSLRLSCAASGFTFRSFGMSWVRQAPGKGPEWVSSISGSGSDTLYADSVKGRFTISRDNSKNTLYLQMNSLRPEDTALYYCTIGGSLSRSSQGTLVTVSSGGGGSGGGSEVQLVESGGGVVQPGGSLRLSCAASGRTFSSYVMGWFRQAPGKEREFVSTINWAGSRGYYADSVKGRFTISRDNAKNTVYLQMNSLRPEDTALYYCAASAGGFLVPRVGQGYDYWGQGTLVKVSSA

Target: T2, human IL-6 (human, UniProt P05231 30-212)
T2 construct: also called hIL-6
Test: SPR

koff [s⁻¹]	Binder
5.9e-05	B1

Target: T3, human TNF-α (human, UniProt P01375 77-233)
T3 sequence (P01375 77-233 limits assumed): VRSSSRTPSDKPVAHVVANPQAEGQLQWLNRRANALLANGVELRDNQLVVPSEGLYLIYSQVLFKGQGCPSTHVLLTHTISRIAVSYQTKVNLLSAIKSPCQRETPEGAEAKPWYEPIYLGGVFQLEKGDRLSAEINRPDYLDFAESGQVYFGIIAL
Test: cell-based or functional assay

IC50 hTNF-α Nfkb assay [pM]	Binder
59.3	B2
100	B3
71.2	B4
64.3	B5

Target: T1, cyno IL-6
Test: cell-based or functional assay

Ratio IC50 cyno IL-6/hIL-6 [ratio]	Binder
1	B2
0.4	B3
0.7	B4
2.8	B5

Target: T2, human IL-6
Test: cell-based or functional assay

IC50 hIL-6 TF1 proliferation assay [pM]	Binder
71.2	B2
127	B3
147	B4
610	B5

Target: T4, cyno TNF-α (cynomolgus monkey, UniProt P79337 77-233)
T4 sequence (P79337 77-233 limits assumed): as the sequence (P01375 77-233 limits assumed) above, with L37V, R44T, T72N, R138L counted along it
Test: cell-based or functional assay

Ratio IC50 cyno TNFα/hTNFα [ratio]	Binder
4.3	B2
1.8	B3
2.5	B4
4.1	B5

Target: T3, human TNF-α
Test: cell-based or functional assay
Remark: another data set of the same source

Ratio IC50 reference anti-TNF-α mAb/Nb [ratio]	hTNF-α Nfkb assay (IC50, pM) [pM]	Binder
4.2	59	B2
0.67	100	B3
0.91	71	B4
1.43	64	B5

Target: T1, cyno IL-6
Test: cell-based or functional assay
Remark: another data set of the same source

cyno IL-6 TF1 proliferation assay (IC50, pM) [pM]	Binder
72	B2
49	B3
101	B4
1710	B5

Target: T2, human IL-6
Test: cell-based or functional assay
Remark: another data set of the same source

Ratio IC50 reference anti-IL-6 mAb1/Nb [ratio]	hIL-6 TF1 proliferation assay (IC50, pM) [pM]	Binder
1.8	71	B2
2.3	127	B3
2.7	147	B4
14.8	610	B5

Target: T4, cyno TNF-α
Test: cell-based or functional assay
Remark: another data set of the same source

cyno TNF-α NFkb assay (IC50, pM) [pM]	Binder
254	B2
176	B3
176	B4
265	B5
